In patent publication US20110014117A1 one finds OD and % Inhibition data, which are given here for two substances.

For assay [1], the target named is recombinant human soluble IGF1R fragment (R&D Systems) (human). Nature of the assay: competitive ELISA on coated sIGF1R fragment, competitor biotinylated 19D12 LCF/HCA; antibody at 0.125 ug/ml.
Assay [2] shares this target. Nature of the assay: competitive ELISA on coated sIGF1R fragment, inhibition of biotinylated 19D12 LCF/HCA binding; antibody at 2 ug/ml. On the technique in general: ELISA stands for enzyme-linked immunosorbent assay.
The target is the same in assay [3]. Kind of assay: competitive ELISA on coated sIGF1R fragment, inhibition of biotinylated 19D12 LCF/HCA binding; antibody at 0.03125 ug/ml.
The target is the same in assay [4]. Nature of the assay: competitive ELISA on coated sIGF1R fragment, competitor biotinylated 19D12 LCF/HCA; antibody at 2 ug/ml.
Assay [5] has the same target. Nature of the assay: competitive ELISA on coated sIGF1R fragment, inhibition of biotinylated 19D12 LCF/HCA binding; antibody at 0.5 ug/ml.
Assay [6] shares this target. Kind of assay: competitive ELISA on coated sIGF1R fragment, competitor biotinylated 19D12 LCF/HCA; antibody at 0.25 ug/ml.
Assay [7] shares this target. Kind of assay: competitive ELISA on coated sIGF1R fragment, inhibition of biotinylated 19D12 LCF/HCA binding; antibody at 0.25 ug/ml.
The target is the same in assay [8]. Kind of assay: competitive ELISA on coated sIGF1R fragment, inhibition of biotinylated 19D12 LCF/HCA binding; antibody at 8 ug/ml.
Assay [9] shares this target. Nature of the assay: competitive ELISA on coated sIGF1R fragment, competitor biotinylated 19D12 LCF/HCA; antibody at 0.015625 ug/ml.
Assay [10] has the same target. Nature of the assay: competitive ELISA on coated sIGF1R fragment, inhibition of biotinylated 19D12 LCF/HCA binding; antibody at 0.125 ug/ml.
Assay [11] has the same target. Nature of the assay: competitive ELISA on coated sIGF1R fragment, inhibition of biotinylated 19D12 LCF/HCA binding; antibody at 4 ug/ml.
Assay [12] has the same target. Nature of the assay: competitive ELISA on coated sIGF1R fragment, inhibition of biotinylated 19D12 LCF/HCA binding; antibody at 0.0625 ug/ml.
Assay [13] has the same target. Kind of assay: competitive ELISA on coated sIGF1R fragment, competitor biotinylated 19D12 LCF/HCA; antibody at 0.007813 ug/ml.
Assay [14] has the same target. Kind of assay: competitive ELISA on coated sIGF1R fragment, competitor biotinylated 19D12 LCF/HCA; antibody at 8 ug/ml.
For assay [15] the target is unchanged. Nature of the assay: competitive ELISA on coated sIGF1R fragment, inhibition of biotinylated 19D12 LCF/HCA binding; antibody at 0.015625 ug/ml.
Assay [16] shares this target. Kind of assay: competitive ELISA on coated sIGF1R fragment, inhibition of biotinylated 19D12 LCF/HCA binding; antibody at 1 ug/ml.
For assay [17] the target is unchanged. Kind of assay: competitive ELISA on coated sIGF1R fragment, competitor biotinylated 19D12 LCF/HCA; antibody at 0.5 ug/ml.
Assay [18] shares this target. Nature of the assay: competitive ELISA on coated sIGF1R fragment, competitor biotinylated 19D12 LCF/HCA; antibody at 0.03125 ug/ml.
Assay [19] has the same target. Kind of assay: competitive ELISA on coated sIGF1R fragment, competitor biotinylated 19D12 LCF/HCA; antibody at 4 ug/ml.
For assay [20] the target is unchanged. Kind of assay: competitive ELISA on coated sIGF1R fragment, competitor biotinylated 19D12 LCF/HCA; antibody at 1 ug/ml.
Assay [21] has the same target. Nature of the assay: competitive ELISA on coated sIGF1R fragment, inhibition of biotinylated 19D12 LCF/HCA binding; antibody at 0.007813 ug/ml.
For assay [22] the target is unchanged. Nature of the assay: competitive ELISA on coated sIGF1R fragment, competitor biotinylated 19D12 LCF/HCA; antibody at 0.0625 ug/ml.

As a reminder, the % Inhibition is the relative decrease from the control value, in per cent. Turning to anti-IGF1R antibody 19D12 LCF/HCA, the OD in [1] was 0.443 OD; in assay [4], -0.0025 OD; in assay [6] it was 0.169 OD; in assay [9], 1.25 OD; in [13] it was 1.23 OD; in [14], -0.0045 OD. Besides, the OD in assay [17] is 0.021 OD; in assay [18], 1.1 OD; in [19], -0.0025 OD; in assay [20] it was 0.001 OD; in assay [22] it was 1 OD. Besides, the % Inhibition in [2] is 100%; in [3] it was 13.8%; in [5], 98.4%; in assay [7] it was 86.8%; in [8], 100%; in [10] it was 65.3%. In addition, the % Inhibition was 100% in assay [11]; 21.7% in [12]; 2.33% in assay [15]; 99.9% in assay [16]; 4.05% in assay [21].

With “commercially available anti-IGF1R antibody MAB391”, the OD in [1] was determined as 1.16 OD; in assay [4], 0.163 OD; in [6] it was 0.981 OD; in assay [9] it was 1.25 OD; in [13] it was 1.31 OD; in [14] it was 0.045 OD. The OD in [17] worked out at 0.628 OD; in [18], 1.41 OD; in assay [19] it was 0.0725 OD; in assay [20], 0.355 OD; in [22] it was 1.24 OD. For the same substance, the % Inhibition was 87.2% in assay [2]; -10.1% in assay [3]; 50.9% in assay [5]; 23.3% in assay [7]; 96.5% in assay [8]; 9.61% in assay [10]. The % Inhibition in assay [11] is 94.3%; in assay [12], 2.69%; in [15], 1.9%; in assay [16], 72.2%; in assay [21] it was -2.16%.
